Substitutions are numbered along the chain they refer to. In names and notes the source's numbering stands. Where two headings read alike, the source gives them in different places.
Assay: Ratiometric fluorescence glucose titration of fluorescent conjugates
Assay type: binding
Parameters: key to Shape (fluorescence response to glucose) / Change (fluorescence response to glucose): m, monochromatic; d, dichromatic (i.e. spectral shape change); 0, no change
Conditions: tsGBP2 cysteine scan; for Kd: ratiometric fit at λ1 and λ2
Excerpt: Semi-synthetic FRSs can be engineered by site-specifically attaching thiol-reactive, environmentally sensitive fluorophores that respond to ligand-mediated conformational changes. Identification of FRS candidates that can be used for sensing applications comprises three steps: • 1. Cysteine scan. Mutant glucose-binding proteins containing single cysteines are constructed for site-specific attachment of thiol-reactive fluorophores. […] Candidate positions fall into three classes: endosteric, replacing a residue that contacts the ligand directly; peristeric, located at the rim of the binding site; allosteric (Marvin et al., 1997, Proc Natl Acad Sci USA, 94, 4366-71; Marvin, 1998, J Am Chem Soc, 120, 7-11), located outside the binding site at sites that undergo local structural changes in concert with the hinge-bending motion. • 2. Fluorophore screening. Thiol-reactive, environmentally sensitive fluorophores are attached to each cysteine mutant prepared in step 1. • 3. Evaluation of the glucose-mediated change of all the fluorescent conjugates prepared in step 2. Responses to ligand binding in which there is both a change in fluorescence emission intensity and spectral shape are essential for chemometric applications, because such changes enable ratiometric measurements. Changes in spectral shape typically are accompanied by a shift in the wavelength of the emission intensity maxima. Three classes of fluorescent responses are possible: • i. No response. • ii. Monochromatic response (emission intensity increases or decreases without a change in spectral shape) • iii.
Determination of temperature- and ligand-dependent fluorescence landscapes. […] Temperatures were advanced in 1K steps.
Determination of emission intensity spectra.
2 For a single glucose-binding site, the fractional saturation is given by […]

[1] = Acrylodan conjugate, read-out: Kd ^appKd
[2] = Acrylodan conjugate, read-out: Kd ^trueKd

B1: W167C Badan: tsGBP2_C167 (SEQ ID NO: 26) Badan conjugate (conjugate)
chain: MKLEIFSWWAGDEGPALEALIRLYKQKYPGVEVINATVTGGAGVNAKAVLKTRMLGGDPPDTFQVHAGQELIGTWVVADRMEDLTSLFRQEGWLQAFPKGLIDLLSYKGGIWSVPVNIHRSNVMWYIPAKLKEWGVTPPKTWAEFLATAQTLKRKGLEAPLALGENCTQQHLWESVALATLGADGWNNLWSGKLKFTDPKAVAVWETFGKVLDAANKDAAGLSWQQAVDRVVQGKAAFNIMGDWAAGYMSTTLKLKPGTDFAWTPSPGTSGIFMMLSDSFGLPKGAKNRQNAINWLKLVGSKEGQDTFNPLKGSIAARLDSDPAKYNAYGQSAMKDWKSNRIVGSLVHGAVAPESFMSQFGTVMEIFLQSRNPQAAANAAQAIANQVGLGRGGSHHHHHH
modifications: Badan conjugate; tsGBP2_C167 (167C substitution mutant with signal peptide replaced with M and a GGSHHHHHH at C-terminus)
Q: For B1, which “Shape (fluorescence response to glucose)” value (Badan conjugate) is on record?
A: The value was “m”.

B2: K312C Badan: tsGBP2_C312 (SEQ ID NO: 33) Badan conjugate (conjugate)
chain: B1 chain with C167W, K312C
modifications: Badan conjugate; tsGBP2_C312 (312C substitution mutant with signal peptide replaced with M and a GGSHHHHHH at C-terminus)
Q: Which “Shape (fluorescence response to glucose)” value (Badan conjugate) does the source give for B2 here?
A: The value was “m”.

B3: H348 Badan: tsGBP2_C348 (SEQ ID NO: 35) Badan conjugate (conjugate)
chain: B1 chain with C167W, H348C
modifications: Badan conjugate; tsGBP2_C348 (348C substitution mutant with signal peptide replaced with M and a GGSHHHHHH at C-terminus)
Q: Which “Shape (fluorescence response to glucose)” value (Badan conjugate) does the source give for B3 here?
A: The value was “d”.

Q: And the Kd (Badan conjugate, read-out: Kd ^appKd)?
A: The Kd was ~4300 µM.

Q: What about the Kd (Badan conjugate, read-out: Kd ^trueKd) of the same molecule?
A: Its Kd is ~5200 µM.

B4: W337 Badan: tsGBP2_C337 (SEQ ID NO: 34) Badan conjugate (conjugate)
chain: B1 chain with C167W, W337C
modifications: Badan conjugate; tsGBP2_C337 (337C substitution mutant with signal peptide replaced with M and a GGSHHHHHH at C-terminus)
Q: For B4, which “Shape (fluorescence response to glucose)” value (Badan conjugate) is on record?
A: The value was 0.

B5: H348 Acrylodan: tsGBP2_C348 (SEQ ID NO: 35) Acrylodan conjugate (conjugate)
chain: B1 chain with C167W, H348C
modifications: Acrylodan conjugate; tsGBP2_C348 (348C substitution mutant with signal peptide replaced with M and a GGSHHHHHH at C-terminus)
Q: Which “Shape (fluorescence response to glucose)” value (Acrylodan conjugate) does the source give for B5 here?
A: Its value is “m”.

Q: And the Kd [1]?
A: The Kd was ~1300 µM.

B6: W224C Badan: tsGBP2_C224 (SEQ ID NO: 28) Badan conjugate (conjugate)
chain: B1 chain with C167W, W224C
modifications: Badan conjugate; tsGBP2_C224 (224C substitution mutant with signal peptide replaced with M and a GGSHHHHHH at C-terminus)
Q: For B6, which “Shape (fluorescence response to glucose)” value (Badan conjugate) is on record?
A: Its value is 0.

B7: S277C Acrylodan: tsGBP2_C277 (SEQ ID NO: 31) Acrylodan conjugate (conjugate)
chain: B1 chain with C167W, S277C
modifications: Acrylodan conjugate; tsGBP2_C277 (cysteine substitution mutant with signal peptide replaced with M and a GGSHHHHHH at C-terminus)
Q: Which “Shape (fluorescence response to glucose)” value (Acrylodan conjugate) does the source give for B7 here?
A: Its value is 0.

B8: K312C Acrylodan: tsGBP2_C312 (SEQ ID NO: 33) Acrylodan conjugate (conjugate)
chain: B1 chain with C167W, K312C
modifications: Acrylodan conjugate; tsGBP2_C312 (312C substitution mutant with signal peptide replaced with M and a GGSHHHHHH at C-terminus)
Q: For B8, which “Shape (fluorescence response to glucose)” value (Acrylodan conjugate) is on record?
A: Its value is “d”.

Q: What about the Kd [1] of the same molecule?
A: The Kd was 9 µM.

Q: And the Kd [2]?
A: The Kd was 10 µM.

B9: W337 Acrylodan: tsGBP2_C337 (SEQ ID NO: 34) Acrylodan conjugate (conjugate)
chain: B1 chain with C167W, W337C
modifications: Acrylodan conjugate; tsGBP2_C337 (337C substitution mutant with signal peptide replaced with M and a GGSHHHHHH at C-terminus)
Q: For B9, which “Shape (fluorescence response to glucose)” value (Acrylodan conjugate) is on record?
A: Its value is “m”.

B10: W224C Acrylodan: tsGBP2_C224 (SEQ ID NO: 28) Acrylodan conjugate (conjugate)
chain: B1 chain with C167W, W224C
modifications: Acrylodan conjugate; tsGBP2_C224 (224C substitution mutant with signal peptide replaced with M and a GGSHHHHHH at C-terminus)
Q: For B10, which “Shape (fluorescence response to glucose)” value (Acrylodan conjugate) is on record?
A: The value was “m”.

Q: What about the Kd [1] of the same molecule?
A: The Kd was 700 µM.

Q: And the Kd [2]?
A: Its Kd is 900 µM.

B11: D278C Badan: tsGBP2_C278 (SEQ ID NO: 32) Badan conjugate (conjugate)
chain: B1 chain with C167W, D278C
modifications: Badan conjugate; tsGBP2_C278 (278C substitution mutant with signal peptide replaced with M and a GGSHHHHHH at C-terminus)
Q: With B11 as the molecule, how does the “Shape (fluorescence response to glucose)” value (Badan conjugate) read?
A: Its value is 0.

B12: S277C Badan: tsGBP2_C277 (SEQ ID NO: 31) Badan conjugate (conjugate)
chain: B1 chain with C167W, S277C
modifications: Badan conjugate; tsGBP2_C277 (cysteine substitution mutant with signal peptide replaced with M and a GGSHHHHHH at C-terminus)
Q: Which “Shape (fluorescence response to glucose)” value (Badan conjugate) does the source give for B12 here?
A: The value was 0.

B13: W244C Badan: tsGBP2_C244 (SEQ ID NO: 30) Badan conjugate (conjugate)
chain: B1 chain with C167W, W244C
modifications: Badan conjugate; tsGBP2_C244 (244C substitution mutant with signal peptide replaced with M and a GGSHHHHHH at C-terminus)
Q: With B13 as the molecule, how does the “Shape (fluorescence response to glucose)” value (Badan conjugate) read?
A: The value was “m”.

B14: S223C Badan: tsGBP2_C223 (SEQ ID NO: 27) Badan conjugate (conjugate)
chain: B1 chain with C167W, S223C
modifications: Badan conjugate; tsGBP2_C223 (223C substitution mutant with signal peptide replaced with M and a GGSHHHHHH at C-terminus)
Q: For B14, which “Shape (fluorescence response to glucose)” value (Badan conjugate) is on record?
A: Its value is “m”.

B15: Q225C Badan: tsGBP2_C225 (SEQ ID NO: 29) Badan conjugate (conjugate)
chain: B1 chain with C167W, Q225C
modifications: Badan conjugate; tsGBP2_C225 (225C substitution mutant with signal peptide replaced with M and a GGSHHHHHH at C-terminus)
Q: Which “Shape (fluorescence response to glucose)” value (Badan conjugate) does the source give for B15 here?
A: The value was “m”.

B16: S223C Acrylodan: tsGBP2_C223 (SEQ ID NO: 27) Acrylodan conjugate (conjugate)
chain: B1 chain with C167W, S223C
modifications: Acrylodan conjugate; tsGBP2_C223 (223C substitution mutant with signal peptide replaced with M and a GGSHHHHHH at C-terminus)
Q: Which “Shape (fluorescence response to glucose)” value (Acrylodan conjugate) does the source give for B16 here?
A: The value was 0.

B17: D278C Acrylodan: tsGBP2_C278 (SEQ ID NO: 32) Acrylodan conjugate (conjugate)
chain: B1 chain with C167W, D278C
modifications: Acrylodan conjugate; tsGBP2_C278 (278C substitution mutant with signal peptide replaced with M and a GGSHHHHHH at C-terminus)
Q: Which “Shape (fluorescence response to glucose)” value (Acrylodan conjugate) does the source give for B17 here?
A: The value was “m”.

B18: Q225C Acrylodan: tsGBP2_C225 (SEQ ID NO: 29) Acrylodan conjugate (conjugate)
chain: B1 chain with C167W, Q225C
modifications: Acrylodan conjugate; tsGBP2_C225 (225C substitution mutant with signal peptide replaced with M and a GGSHHHHHH at C-terminus)
Q: With B18 as the molecule, how does the “Shape (fluorescence response to glucose)” value (Acrylodan conjugate) read?
A: The value was “m”.
